Residue numbers refer to the chain shown, from its start. In names and notes the source's numbering stands. Like-named read-outs stand apart in the source and are kept apart here. Each block holds one binder with its values, some of them ahead of it.
Experiments:
cynomolgus ICOS [1] = target: T1, cynomolgus ICOS (cynomolgus, UniProt Q9Y6W8 21-195 (human entry)); assay: flow cytometry, activated cynomolgus PBMCs, CD8+ subset
T1 chain: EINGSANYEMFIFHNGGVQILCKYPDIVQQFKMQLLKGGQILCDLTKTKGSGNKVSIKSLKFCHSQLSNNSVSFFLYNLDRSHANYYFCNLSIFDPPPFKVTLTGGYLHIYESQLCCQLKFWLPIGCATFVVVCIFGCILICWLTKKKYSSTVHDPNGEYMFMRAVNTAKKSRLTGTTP
Protocol: (§1) Briefly, suspension cells were harvested, counted, checked for viability and re-suspended at 1 million cells per ml in FACS buffer (PBS with 0.1% BSA). […] The staining was fixed for 20 min at 4° C. in the dark, using 75 μl of 1% PFA in FACS buffer per well.
(§2) Briefly, cynomolgus PBMCs were activated for 48 hours using Dynabeads™ Human T-Activator CD3/CD28 (Thermo Fischer #11131D) according to manufacturer instruction and stored in RPMI1640 medium containing 10% FCS and 1% Glutamax (Gibco 35050061) at 37° C., in a humidified incubator until subsequent binding experiment was performed, as described above.

human ICOS [2] = target: T2, human ICOS (human, UniProt Q9Y6W8 21-199); assay: flow cytometry, SR cells
T2 construct: The cell that carries it is named under assay; also called huICOS; CD278
T2 sequence: T1 chain with K54T, R81H, T129A, F136L, T152S, G176D, T177V, P179L

cynomolgus ICOS [3] = target: T1, cynomolgus ICOS; assay: flow cytometry on cynomolgus PBMCs activated 48 h with CD3/CD28 beads, CD4+ subset, MFI
Protocol: as §1, §2

human FAP [4] = target: T3, human FAP (human, UniProt Q12884 1-760); assay: flow cytometry on NIH/3T3-huFAP clone 19 cells, geometric MFI
T3 construct: also called hu FAP

human ICOS [5] = target: T2, human ICOS; assay: cell-based or functional assay
cynomolgus ICOS [6] = target: T1, cynomolgus ICOS; assay: flow cytometry, activated cynomolgus PBMCs, CD4+ subset
Protocol: as §1, §2

human ICOS [7] = target: T2, human ICOS; assay: flow cytometry, CHO cells expressing human ICOS
human ICOS [8] = target: T2, human ICOS; assay: flow cytometry, CHO cells expressing human ICOS; remark: listed apart in the source
Protocol: as §1
(§3) Fluorescence was analyzed by FACS using a FACS Fortessa (Software FACS Diva). Binding curves and EC₅₀ values were obtained using GraphPadPrism 7.

human FAP [9] = target: T3, human FAP; assay: flow cytometry, NIH/3T3-huFAP clone 19 cells
Protocol: as §1, §3

human ICOS [10] = target: T2, human ICOS; assay: flow cytometry on CHO cells expressing human ICOS, PE-labelled secondary antibody; y axis printed LOG10(MFI PE)
cynomolgus ICOS [11] = target: T1, cynomolgus ICOS; assay: flow cytometry on cynomolgus PBMCs activated 48 h with CD3/CD28 beads, CD8+ subset, MFI
Protocol: as §1, §2

human FAP [12] = target: T3, human FAP; assay: flow cytometry, NIH/3T3-huFAP clone 19 cells; remark: listed apart in the source
human FAP [13] = target: T3, human FAP; assay: flow cytometry, NIH/3T3-huFAP clone 19 cells; remark: listed apart in the source
murine FAP [14] = target: T4, murine FAP (murine, UniProt P97321 26-761, limits assumed); assay: flow cytometry, cells carrying murine FAP not told
T4 construct: also called mouse FAP

human ICOS [15] = target: T2, human ICOS; assay: flow cytometry, pre-activated human PBMCs, CD8+ subset
Protocol: as §1
(§4) Briefly, Peripheral blood mononuclear cells (PBMCs) were prepared by Histopaque (Sigma-Aldrich, Cat No. 10771-500ML Histopaque-1077) density centrifugation of enriched lymphocyte preparations of heparinized blood obtained from a Buffy Coat (“Blutspende Zürich”). The blood was diluted 1:2 with sterile DPBS and layered over Histopaque gradient (Sigma, #H8889). After centrifugation (450×g, 30 minutes, room temperature), the plasma above the PBMC-containing interphase was discarded and PBMCs transferred in a new falcon tube subsequently filled with 50 ml of PBS. The mixture was centrifuged (400×g, 10 minutes, room temperature), the supernatant discarded and the PBMC pellet washed twice with sterile PBS (centrifugation steps 350×g, 10 minutes). The resulting PBMC population was counted automatically (Cedex HiRes) and stored in RPMI1640 medium containing 10% FCS and 1% Glutamax (Gibco 35050061). […] After incubation the PBMCs were used for a subsequent binding experiment, as described above.

murine ICOS = target: T5, murine ICOS (murine, UniProt Q9WVS0 21-200); assay: flow cytometry, % positive cells; murine ICOS on recombinant CHO cells according to the legend, on pre-activated murine splenocytes according to the example
T5 sequence: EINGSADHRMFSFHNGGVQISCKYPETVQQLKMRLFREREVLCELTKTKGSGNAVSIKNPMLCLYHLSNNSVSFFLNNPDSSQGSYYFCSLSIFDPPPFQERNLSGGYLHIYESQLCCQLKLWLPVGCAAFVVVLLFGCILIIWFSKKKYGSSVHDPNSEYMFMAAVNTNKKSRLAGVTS

cynomolgus ICOS [16] = target: T1, cynomolgus ICOS; assay: flow cytometry on cynomolgus PBMCs activated 48 h with CD3/CD28 beads, CD4+ subset, MFI
human FAP [17] = target: T3, human FAP; assay: flow cytometry on NIH/3T3-huFAP clone 19 cells, MFI on single cells
Protocol: as §1

human ICOS [18] = target: T2, human ICOS; assay: flow cytometry, pre-activated human PBMCs, CD4+ subset
Protocol: as §1, §4

human FAP [19] = target: T3, human FAP; assay: flow cytometry on NIH/3T3-huFAP clone 19 cells, AF647-labelled anti-human Fc secondary antibody, MFI
Protocol: as §1, §3

murine FAP [20] = target: T4, murine FAP; assay: flow cytometry, % positive cells; cells bearing murine FAP not given

B2: Molecule 10, bispecific monovalent anti-ICOS (1167)/anti-FAP (4B9) huIgG1 P329GLALA kih antibody (1+1) (bispecific antibody)
heavy 1: EIVLTQSPGTLSLSPGERATLSCRASQSVTSSYLAWYQQKPGQAPRLLINVGSRRATGIPDRFSGSGSGTDFTLTISRLEPEDFAVYYCQQGIMLPPTFGQGTKVEIKSSASTKGPSVFPLAPSSKSTSGGTAALGCLVKDYFPEPVTVSWNSGALTSGVHTFPAVLQSSGLYSLSSVVTVPSSSLGTQTYICNVNHKPSNTKVDKKVEPKSCDKTHTCPPCPAPEAAGGPSVFLFPPKPKDTLMISRTPEVTCVVVDVSHEDPEVKFNWYVDGVEVHNAKTKPREEQYNSTYRVVSVLTVLHQDWLNGKEYKCKVSNKALGAPIEKTISKAKGQPREPQVCTLPPSRDELTKNQVSLSCAVKGFYPSDIAVEWESNGQPENNYKTTPPVLDSDGSFFLVSKLTVDKSRWQQGNVFSCSVMHEALHNHYTQKSLSLSP
light 1: EVQLLESGGGLVQPGGSLRLSCAASGFTFSSYAMSWVRQAPGKGLEWVSAIIGSGASTYYADSVKGRFTISRDNSKNTLYLQMNSLRAEDTAVYYCAKGWFGGFNYWGQGTLVTVSSASVAAPSVFIFPPSDEQLKSGTASVVCLLNNFYPREAKVQWKVDNALQSGNSQESVTEQDSKDSTYSLSSTLTLSKADYEKHKVYACEVTHQGLSSPVTKSFNRGEC
heavy 2: not shown
light 2: DIQMTQSPSSVSASVGDRVTITCRASQGINNFLAWYQQKPGKAPKLLIYDASSLQSGVPSRFAGSGSGTDFTLTISSLQPEDFATYYCQQYNFYPLTFGGGTMVEIKRTVAAPSVFIFPPSDRKLKSGTASVVCLLNNFYPREAKVQWKVDNALQSGNSQESVTEQDSKDSTYSLSSTLTLSKADYEKHKVYACEVTHQGLSSPVTKSFNRGEC
notes: CrossFab (VLCH1/VHCL) on the FAP arm; also called FAP-ICOS (1+1)
EC50 (human FAP [13]): 1.54 nM
EC50 (murine FAP [14]): 0.177 nM
EC50 (human ICOS [15]): ~124 nM
binding result (murine ICOS): binds
binding result (cynomolgus ICOS [16]): binds
EC50 (read off the curve) (human FAP [17]): ~2 nM
EC50 (human ICOS [18]): ~58 nM
EC50 (read off the curve) (human FAP [19]): ~1 nM
EC50 (read off the curve) (murine FAP [20]): ~0.2 nM
EC50 (human ICOS [8]): 41.7 nM
EC50 (human FAP [9]): 1.4 nM

B3: Molecule 11, bispecific 1+1 head-to-tail anti-ICOS (1167)/anti-FAP (4B9) huIgG1 P329GLALA kih antibody (bispecific antibody)
heavy 1: DKTHTCPPCPAPEAAGGPSVFLFPPKPKDTLMISRTPEVTCVVVDVSHEDPEVKFNWYVDGVEVHNAKTKPREEQYNSTYRVVSVLTVLHQDWLNGKEYKCKVSNKALGAPIEKTISKAKGQPREPQVCTLPPSRDELTKNQVSLSCAVKGFYPSDIAVEWESNGQPENNYKTTPPVLDSDGSFFLVSKLTVDKSRWQQGNVFSCSVMHEALHNHYTQKSLSLSPGGGGGSGGGGSGGGGSGGGGSEIVLTQSPGTLSLSPGERATLSCRASQSVTSSYLAWYQQKPGQAPRLLINVGSRRATGIPDRFSGSGSGTDFTLTISRLEPEDFAVYYCQQGIMLPPTFGQGTKVEIK
heavy 2: not shown
light: B2 light 2
notes: names and VH/VL of 4B9 are swapped; also called 1+1_HT; FAP-ICOS (HT)
EC50 (murine FAP [14]): 0.413 nM
binding result (murine ICOS): binds
binding result (cynomolgus ICOS [16]): binds
EC50 (read off the curve) (human FAP [19]): ~1 nM
EC50 (read off the curve) (murine FAP [20]): ~0.4 nM
EC50 (human ICOS [8]): 4.17 nM
EC50 (human FAP [9]): 1.15 nM

Second part, the binder after the results:

EC50 (cynomolgus ICOS [1]): 3.5 nM
EC50 (human ICOS [2]): 0.00139 nM
EC50 (read off the curve) (cynomolgus ICOS [3]): ~2 nM
EC50 (read off the curve) (human FAP [4]): ~2 nM
EC50 of activation of Jurkat-NFAT reporter cell line (human ICOS [5]): 4.44 nM
Max (Counts/sec), Jurkat-NFAT reporter cell line (human ICOS [5]): 39700 Counts/sec
EC50 (cynomolgus ICOS [6]): 2.09 nM
EC50 (human ICOS [7]): 0.516 nM
Max (Log10(MFI)) (human ICOS [7]): 3.06 Log10(MFI)
EC50 (human ICOS [8]): 1.12 nM
EC50 (human FAP [9]): 2.97 nM
EC50 (read off the curve) (human ICOS [10]): ~0.5 nM
EC50 (read off the curve) (cynomolgus ICOS [11]): ~3 nM
EC50 (human FAP [12]): 0.00198 nM
B1: Molecule 15, bispecific 2+1 anti-ICOS (009v1)/anti-FAP (4B9) huIgG1 P329GLALA kih (bispecific antibody)
heavy 1: EVRLDETGGGVVQPGRPMELSCVASGFTFSDYWMNWVRQSPEKGLEWVAQIRNKPYNYETYYSDSVKGRFTISRDDSKSRVYLQMNNLRAEDMGIYYCTWPRLRSSDWHFDVWGAGTTVTVSSASTKGPSVFPLAPSSKSTSGGTAALGCLVKDYFPEPVTVSWNSGALTSGVHTFPAVLQSSGLYSLSSVVTVPSSSLGTQTYICNVNHKPSNTKVDKKVEPKSCDKTHTCPPCPAPEAAGGPSVFLFPPKPKDTLMISRTPEVTCVVVDVSHEDPEVKFNWYVDGVEVHNAKTKPREEQYNSTYRVVSVLTVLHQDWLNGKEYKCKVSNKALGAPIEKTISKAKGQPREPQVCTLPPSRDELTKNQVSLSCAVKGFYPSDIAVEWESNGQPENNYKTTPPVLDSDGSFFLVSKLTVDKSRWQQGNVFSCSVMHEALHNHYTQKSLSLSPGGGGGSGGGGSGGGGSGGGGSEIVLTQSPGTLSLSPGERATLSCRASQSVTSSYLAWYQQKPGQAPRLLINVGSRRATGIPDRFSGSGSGTDFTLTISRLEPEDFAVYYCQQGIMLPPTFGQGTKVEIK
heavy 2: not shown
light: AIQMTQSPSSLSASLGGEVTITCKASQDINKNIAWYQHKPGRGPRLLIWYTSTLQTGIPSRFSGSGSGRDYSFTISNLEPEDFATYYCLQFDNLYTFGSGTKLEIRRTVAAPSVFIFPPSDEQLKSGTASVVCLLNNFYPREAKVQWKVDNALQSGNSQESVTEQDSKDSTYSLSSTLTLSKADYEKHKVYACEVTHQGLSSPVTKSFNRGEC

EC50 (human FAP [13]): 1.82 nM
EC50 (human ICOS [15]): ~12.6 nM
EC50 (read off the curve) (human FAP [17]): ~2 nM
EC50 (human ICOS [18]): ~12.6 nM
B4: Molecule 12, bispecific 2+1 anti-ICOS (1167)/anti-FAP (4B9) Crossfab-IgG P329G LALA (bispecific antibody)
heavy 1: EVRLLESGGGLVQPGGSLRLSCAASGFTFNTYAVHWVRQAPGKGLEWVSGIGGSGVRTYYADSVKGRLTISRDNSKNTLYLQMNSLRAEDTAIYFCAKDIYVADFTGYAFDIWGQGTMVTVSSASTKGPSVFPLAPSSKSTSGGTAALGCLVEDYFPEPVTVSWNSGALTSGVHTFPAVLQSSGLYSLSSVVTVPSSSLGTQTYICNVNHKPSNTKVDEKVEPKSCDKTHTCPPCPAPEAAGGPSVFLFPPKPKDTLMISRTPEVTCVVVDVSHEDPEVKFNWYVDGVEVHNAKTKPREEQYNSTYRVVSVLTVLHQDWLNGKEYKCKVSNKALGAPIEKTISKAKGQPREPQVCTLPPSRDELTKNQVSLSCAVKGFYPSDIAVEWESNGQPENNYKTTPPVLDSDGSFFLVSKLTVDKSRWQQGNVFSCSVMHEALHNHYTQKSLSLSP
light 1: B2 light 2
heavy 2: not shown
light 2: B2 light 1
